Paper PMC3905857, “Structure and properties of the esterase from non-LTR retrotransposons suggest a role for lipids in retrotransposition” (Nucleic Acids Research, 2013)

B1: ZfL2-1 esterase (ZfL2-1_ES) (Danio rerio) (protein)
chain: DVAIIGDSIVRHVRAASSKGNKVRTFCFPGARVKNISTQIPTILGAAESPGAVVLHVGTNDTGLRQSEILKKDFRSLIETVRRTSPATQIIVSGPLPTYRRGNERFSRLLALNEWLITWCKEQKLLFANNWNLFWERPRLFRPDGLHPSRAGAELLSDNISRLLRTI
notes: esterase domain D136-I302, codon-optimized synthetic gene, pETM41P, E. coli BL21-Star; 19 kDa monomer (MBP apparently removed)
B2: ZfL2-1_CC, N-terminal construct comprising the coiled coil domain of the ZfL2-1 ORF1p (M15-T91) (domain or fragment, Danio rerio (zebrafish), UniProt Q3LG57 15-91, looked up)
chain: MEALELELEEVESQIRALVVRRSRLRERLLAVPNAKAVSSPKVRGNYNHIIPSTSTPRPSLSRPSAPGARLSQASFT
notes: ORF1 protein (ORF1p) of the ZfL2-1 non-LTR retrotransposon, Danio rerio, Uniprot Q3LG57, residues M15-T91; Expressed from pETM41P from a codon-optimized synthetic template

Tests used:
[1] = substrate: CC(=O)Oc1ccc([N+](=O)[O-])cc1; assay: purified protein; type: biochemical, Danio rerio; conditions: 20 mM Tris/HCl pH 7.5, 250 mM NaCl, 5 mM MgCl2, 25°C
[2] = molecular target: the molecule itself; assay: SEC-MALS; Superdex 75 (10/300 GL) followed online by MALLS; 20 mM Tris/HCl pH 7.5, 250 mM NaCl, 5 mM MgCl2

Protein	Km [1] [µM]	kcat [1] [s⁻¹]	stoichiometry N [2]
B1	430 ± 100	0.32 ± 0.07	–
B2	–	–	2
